Assay results from the supplement of paper PMC9732359.
± gives the uncertainty stated by the source.

Experiment: protein stability index of a GFP-peptide fusion (yeast GPS) (PSI 1-4); higher = more stable; sorted into four equal gates, so the index is relative within each strain
How it was run: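 The protein stability index of a peptide was calculated by multiplying its read frequency in each gate by that gate's number and adding the products. The peptides were tiled 17-residue stretches of yeast proteins, fused downstream of GFP on a Cherry-expressing plasmid and carried in yeast as a pooled library. Mid-log cultures in leucine-free medium were sorted into four equal gates by GFP/Cherry ratio, and each gate's plasmids were PCR-amplified and Illumina-sequenced.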

Row | Sequence | protein stability index (doa10∆) | protein stability index (pdr5∆) | protein stability index (san1∆) | protein stability index (ubr1∆)
1 | LVPTASFFIASQLQEQF [FAS1] | 1.35 ± 0.047 | 1.88 ± 0.053 | 1.53 ± 0.086 | 1.86 ± 0.04
2 | VALTGLLIRSKTEDPKG [YML031W/NDC1] | 1.71 ± 0.041 | 2.21 ± 0.042 | 1.73 ± 0.052 | 2.28 ± 0.032
3 | TPAFGSNNTGNTAFGNS [YJL041W/NSP1] | 2.85 ± 0.11 | 3.13 ± 0.081 | 3.28 ± 0.067 | 3.08 ± 0.049
4 | HQQRMSRTAADILLRLC [YCG1] | 2.48 ± 0.29 | 1.63 ± 0.2 | – | 2.66 ± 0.1
5 | REMRRKVYAQLLESYKT [RPN7] | 2.36 ± 0.081 | 2.96 ± 0.14 | 2.32 ± 0.18 | 2.7 ± 0.09
6 | TFSVYHESTSRTDQYTI [YMR129W/POM152] | 2.63 ± 0.15 | 2.64 ± 0.077 | 2.58 ± 0.098 | 2.62 ± 0.066
7 | SKIFNESFPDDIPLAKA [CDC53] | 2.68 ± 0.056 | 2.89 ± 0.067 | 2.55 ± 0.049 | 2.82 ± 0.037
8 | EYADNDEDKFKKLKPIV [PRP28] | 2.82 ± 0.072 | 2.65 ± 0.092 | 3.09 ± 0.09 | 2.64 ± 0.041
9 | NYILNFKQSNSETFLQF [CDC53] | 2.57 ± 0.13 | 1.43 ± 0.1 | 1.77 ± 0.17 | 2.12 ± 0.11
10 | VPVRDGVTIEFSTNVKD [RPL9A] | 1.35 ± 0.27 | 1.58 ± 0.26 | – | –
11 | PKHSYLSGNPLTSVTND [SIR4] | 2.67 ± 0.073 | 3.03 ± 0.071 | 3.17 ± 0.056 | 2.97 ± 0.074
12 | RQFEVKQLQLAMHNSKA [POP1] | 1.95 ± 0.055 | 2.17 ± 0.059 | 1.77 ± 0.088 | 1.61 ± 0.038
13 | SKSEFAHRIMLTNILRM [FAS2] | 1.62 ± 0.066 | 1.67 ± 0.068 | 1.46 ± 0.14 | 1.85 ± 0.081
14 | DDYILSGESVMDRDSES [SRB4] | 3.45 ± 0.19 | 3.6 ± 0.12 | 3.34 ± 0.15 | 3.21 ± 0.13
15 | HPYEYEIDHQEYSPEIL [RRP6] | 2.75 ± 0.048 | 2.69 ± 0.042 | 2.83 ± 0.059 | 2.76 ± 0.035
16 | KTRVGSVTAQVYKIALR [RPC82] | 1.27 ± 0.11 | 1.49 ± 0.068 | 1.5 ± 0.16 | 1.15 ± 0.12
17 | HPTIYESLPQYVDFVPM [POP4] | 1.72 ± 0.045 | 2 ± 0.048 | 1.81 ± 0.056 | 1.78 ± 0.051
18 | ELTDKLSALNSEISSLK [SMC1] | 3.15 ± 0.11 | 2.76 ± 0.094 | 3.02 ± 0.074 | 2.89 ± 0.076
19 | NNESNKNNNGDEKNKNN [MED2] | 3.21 ± 0.074 | 3.39 ± 0.066 | 3.33 ± 0.038 | 3.31 ± 0.051
20 | PSLNKTINGKVNGRTKS [GAL11] | 3.06 ± 0.14 | 3.07 ± 0.13 | 2.98 ± 0.14 | 3.11 ± 0.14
21 | VTNIRRIIQDNISPRLV [RRP46] | 2.3 ± 0.09 | 2.63 ± 0.1 | – | 2.23 ± 0.074
22 | EWNGKSFQKKSNDKVVE [ISW2] | 3.14 ± 0.054 | 3.34 ± 0.058 | 3.01 ± 0.049 | 3.08 ± 0.064
23 | RGAHVEKTMVKKNLGRL [PRP8] | – | 3.29 ± 0.16 | 3.14 ± 0.18 | –
24 | MIVPVRCFSCGKVVGDK [RPB10] | 2.64 ± 0.17 | 2.59 ± 0.12 | 2.13 ± 0.1 | 2.66 ± 0.092
25 | ETASFIPTKESLTRDFE [YIL149C/MLP2] | 2.83 ± 0.068 | 3.09 ± 0.075 | 2.41 ± 0.077 | 2.72 ± 0.046
26 | HYLVLLVAKFLYPIFLL [YJR042W/NUP85] | 1.4 ± 0.035 | 1.22 ± 0.032 | 1.11 ± 0.071 | 1.13 ± 0.026
27 | KKLESQESLVKLFTTNE [RPN5] | 2.94 ± 0.11 | 3.12 ± 0.13 | 3.22 ± 0.081 | 2.88 ± 0.12
